Results from patent US12637662B2, “Cells, islets, and organoids that evade immune detection and autoimmunity, methods of production and use thereof” (SALK INSTITUTE FOR BIOLOGICAL STUDIES, priority 2018, dated 2026).
“Also recorded” adds a separate entry of the source.

Legend:
wHILO cells = test: Immunohistochemistry and flow cytometry of cell composition; assay type: cell-based, human
Procedure: Secondary antibodies were coupled to Alexa 568, 647 (Life Technologies), and IHC staining was visualized by confocal microscopy (ZEISS) or fluorescence microscopy. Hoechst 33342 (Thermo Scientific, 62249, 1 μg/ml final concentration) was used for nuclear staining.
Clusters at indicated stages were dissociated with TrypLE (GIBCO) with 20 ug/ml DNase for 12 minutes at 37° C. and then were fixed with 4% PFA for 10 minutes at room temperature. Clusters were then permeabilized with 0.2% Triton X for 10 min, blocking with 10% goat serum for 30 min and stained for various intracellular markers with antibodies, c-peptide, (1/100, abcam, ab30477), PDX-1 (1/100, BD, 562161), NKX6-1 (1/100, BD, 563338), Chromogranin A (1/100, BD, 564583), MAFA (1/100, abcam, ab264583), MAFB (1/100, abcam, ab66506), Glucagon (1/100, abcam, ab82270), Somatostatin (1/100, abcam, 108456) for analysis on a BD Biosciences LSRII instrument. Data were analysed by FlowJo software. Secondary antibodies for c-peptide, Glucagon and Somatostatin were coupled to Alexa 647 (Life Technologies).

[1] = test system: insulin-expressing cells of HILOs; test: Mitochondrial content (MitoTracker) and insulin-GFP by flow cytometry; assay type: cell-based, human
Source text: FIGS. 8A-8H provide images, graphs, a schematic and a diagram showing results related to WNT4 mediated insulin-GFP expression and WNT4-driven metabolic maturation. FIG. 8A presents representative images of mitochondrial content, indicated by MitoTracker (red) staining, in PBS and WNT4 treated HILOs (scale bar, 100 μm). FIG. 8B presents graphs of flow cytometry quantification of insulin expression (GFP) and mitochondrial content in HILOs treated with recombinant human WNT4 (rhWNT4), WNT5A (rhWNT5A), or conditioned medium (CM) from control or WNT5A overexpressing fibroblasts (n=3). Error bars represent SEM. *p<0.05. FIG. 8C presents a gene ontology of transcriptional changes induced by WNT4 treatment (100 ng/ml WNT4 from day26 to day33) in HILOs. […] Error bars represent SEM. *p<0.05. FIG. 8E presents a Venn diagram showing overlap between WNT4-induced increases in chromatin accessibility in GFP^+ cells and increases in HILO gene expression (upper panel), and gene ontology pathways enriched in the intersection gene set. […] For FIGS. 8G and 8H, postnatal islets (day P11-14) from WT and β cell specific ERRγKO mice were cultured with or without rhWNT4 (100 ng/ml) for >5 days.

postnatal mouse islets = test: rhWNT4 culture of postnatal islets from WT and β cell specific ERRγKO mice; assay type: cell-based; conditions: 100 ng/ml for 5 days; WT but not ERRγKO mice
Source text: FIGS. 8A-8H provide images, graphs, a schematic and a diagram showing results related to WNT4 mediated insulin-GFP expression and WNT4-driven metabolic maturation. FIG. 8A presents representative images of mitochondrial content, indicated by MitoTracker (red) staining, in PBS and WNT4 treated HILOs (scale bar, 100 μm). FIG. 8B presents graphs of flow cytometry quantification of insulin expression (GFP) and mitochondrial content in HILOs treated with recombinant human WNT4 (rhWNT4), WNT5A (rhWNT5A), or conditioned medium (CM) from control or WNT5A overexpressing fibroblasts (n=3). Error bars represent SEM. *p<0.05. […]
Insulin release from intact islets was monitored using batch incubation methods as reported by E. Yoshihara et al., 2016, Cell metabolism, 23:622-634. […] After 30 minutes, the islets were pelleted by centrifugation and secreted insulin levels were determined in the medium by Enzyme Linked Immunosorbent Assay (ELISA), (Rat/mouse Insulin ELISA KIT (Millipore) and Human Insulin ELISA KIT or ultrasensitive human c-peptide ELISA Kit (Millipore) for mouse and human islets, respectively). […] After 30 minutes, the cells were pelleted by centrifugation and c-peptide levels were determined in the supernatant medium using the human c-peptide ELISA KIT (Millipore). […]

B1: WNT4: recombinant human Wnt4 protein (R&D Systems), non-canonical WNT maturation factor (protein, UniProt P56705 23-351, looked up)
Protein Wnt-4: SNWLYLAKLSSVGSISEEETCEKLKGLIQRQVQMCKRNLEVMDSVRRGAQLAIEECQYQFRNRRWNCSTLDSLPVFGKVVTQGTREAAFVYAISSAGVAFAVTRACSSGELEKCGCDRTVHGVSPQGFQWSGCSDNIAYGVAFSQSFVDVRERSKGASSSRALMNLHNNEAGRKAILTHMRVECKCHGVSGSCEVKTCWRAVPPFRQVGHALKEKFDGATEVEPRRVGSSRALVPRNAQFKPHTDEDLVYLEPSPDFCEQDMRSGVLGTRGRTCNKTSKAIDGCELLCCGRGFHTAQVELAERCSCKFHWCCFVKCRQCQRLVELHTCR
cellular composition of HILOs (wHILO cells): not altered | proportion of insulin expressing cells ([1]; GFP sorting, HILOs with and without WNT treatment): not affected | mitochondrial content / number ([1]; MitoTracker, HILOs / insulin-expressing cells): increased mitochondrial number; also recorded: increased the mitochondrial content | mitochondrial metabolic gene expression and GSIS in neonatal islets (postnatal mouse islets): induced the expression of mitochondrial metabolic genes and improved GSIS function
